Measured values from PMC13001094, “Cargo Recognition of Nesprin‑2 by the Dynein Adapter Bicaudal D2 for a Nuclear Positioning Pathway That Is Important for Brain Development” (Biochemistry, 2026).

How the values were obtained:
[1] = target: Cytoplasmic dynein (bovine); test: two-colour single-molecule assay (TIRF) of reconstituted complexes on microtubules; BicD2, instead of Nesprin-2, labelled with two different colours in DDBN complexes
[2] = target: T1, GST-tagged mouse Nesprin-2 (aa 6123–6421) (mouse, UniProt Q6ZWQ0 6123-6421); test: pull-down; GST-tagged Nesprin-1/2 fragment held on glutathione column (not eluted), incubated 30 min with Ni-NTA-purified His6-BicD2-CTD diluted to 125 mM NaCl; washed twice; eluted with 10 mM glutathione, 50 mM Tris pH 8.0, 150 mM NaCl, 1 mM DTT; SDS-PAGE, Coomassie; band ratio normalised to WT = 1; details: both partners purified
T1 construct: pGEX6p1 vector; codon-optimised insert from Genscript; also called Nesprin-2-SR52-SR53AD; minimal Nesprin-2 fragment; source: E. coli BL21(DE3)-RIL, purified on glutathione resin (not eluted before the pull-down); not shown: GST, N-terminal, kept
T1 sequence (looked up): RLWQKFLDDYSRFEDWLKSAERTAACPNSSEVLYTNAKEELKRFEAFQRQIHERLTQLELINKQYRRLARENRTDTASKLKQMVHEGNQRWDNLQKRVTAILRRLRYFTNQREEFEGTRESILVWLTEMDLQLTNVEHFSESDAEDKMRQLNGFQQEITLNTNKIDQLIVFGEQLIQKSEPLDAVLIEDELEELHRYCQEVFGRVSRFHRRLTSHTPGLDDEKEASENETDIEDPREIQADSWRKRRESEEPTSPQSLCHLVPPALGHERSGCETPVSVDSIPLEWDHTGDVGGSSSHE

[3] = target: T2, GST-tagged human Nesprin-1 (aa 7997–8328) (human, UniProt Q8NF91 7997-8328); test: as above; details: both partners purified
T2 construct: Nesprin-1, human, aa 7997-8328 cloned (the results speak of the domain aa 7998-8315: SR70, SR71 and a disordered domain with a LEWD motif); cloned into the same vector (pGEX6p1) as the Nesprin-2 fragment; also called Nesprin-1-SR70-SR71AD; Nesprin-1 fragment; source: E. coli BL21(DE3)-RIL, purified on glutathione resin (not eluted before the pull-down); not shown: GST, N-terminal, kept
T2 sequence (looked up): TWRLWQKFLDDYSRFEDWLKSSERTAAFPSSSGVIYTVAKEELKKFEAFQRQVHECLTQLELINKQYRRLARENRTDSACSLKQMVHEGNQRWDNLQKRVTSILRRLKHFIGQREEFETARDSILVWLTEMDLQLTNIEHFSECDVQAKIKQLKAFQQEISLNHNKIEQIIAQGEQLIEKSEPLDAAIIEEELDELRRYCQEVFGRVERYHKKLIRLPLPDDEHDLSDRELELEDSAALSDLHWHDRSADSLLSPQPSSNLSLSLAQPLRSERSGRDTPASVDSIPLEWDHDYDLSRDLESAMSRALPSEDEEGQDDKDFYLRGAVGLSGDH

[4] = target: T3, GST-tagged Nesprin-2 (aa 6123–6340) (mouse, UniProt Q6ZWQ0 6123-6340); test: as above; details: both partners purified
T3 construct: lacks the entire intrinsically disordered domain with the LEWD motif; deletion construct of m1; source: E. coli BL21(DE3)-RIL, purified on glutathione resin (not eluted before the pull-down); not shown: GST, N-terminal, kept
T3 sequence (looked up): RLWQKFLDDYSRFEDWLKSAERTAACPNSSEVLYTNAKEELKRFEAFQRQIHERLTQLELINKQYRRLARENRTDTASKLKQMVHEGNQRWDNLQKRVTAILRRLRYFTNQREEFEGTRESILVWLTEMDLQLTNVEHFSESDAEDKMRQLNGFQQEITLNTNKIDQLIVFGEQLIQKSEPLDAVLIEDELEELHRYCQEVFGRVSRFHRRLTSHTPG

[5] = target: T4, Nesprin-2 fragment of the purified minimal Nesprin-2/BicD2 complex used for SEC-MALS (mouse); test: SEC-MALS; purified minimal Nesprin-2/BicD2 complex, GST tag on Nesprin-2; methods in the supplement; details: both partners purified
T4 chain: T3 sequence (looked up)

In the case of “Full-length, wild-type human BicD2 (from UniProt Q8TD16-2 1-855) (natural protein)”, the stoichiometry N (BicD2 per DDBN complex) [1] is reported as 1.

B1: His6-tagged human BicD2-CTD (aa 715–804) (domain or fragment, UniProt Q8TD16-2 715-804, looked up)
chain: YENEKAMVTETMMKLRNELKALKEDAATFSSLRAMFATRCDEYITQLDEMQRQLAAAEDEKKTLNSLLRMAIQQKLALTQRLELLELDHE
notes: pET28a vector; source: E. coli LOBSTR BL21(DE3)-RIL, purified (Ni-NTA); not shown: His6, N-terminal, kept
B1: binds [2]; binds [3]; binds [4].

B2: BicD2-CTD of the purified minimal Nesprin-2/BicD2 complex used for SEC-MALS (domain or fragment, human, UniProt Q8TD16-2 715-804, looked up)
chain: B1 chain
notes: printed protomer mass 10.9 kDa; also called BicD2 protomer (10.9 kDa)
In the case of B2, the “stoichiometry N” value [5] is reported as 1 BicD2 per Nesprin-2 (2:2 complex).
